Source: patent US20140086829A1 (BIOREC S A, published 2014)

Legend:
human GST-VEGF [1] = target: T1, human GST-VEGF (human, UniProt P15692-9 27-147); test: competition ELISA on coated GST-VEGF; soluble scFv 2H1 titrated; competitor phage scFv 2H10
T1 construct: also called GST-VEGF humano; not shown: GST fusion partner
T1 sequence (looked up): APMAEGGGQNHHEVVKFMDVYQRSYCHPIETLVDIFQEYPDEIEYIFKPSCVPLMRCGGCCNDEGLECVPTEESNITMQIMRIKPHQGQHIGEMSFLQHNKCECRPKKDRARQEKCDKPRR

human GST-VEGF [2] = target: T1, human GST-VEGF; test: competition ELISA on coated GST-VEGF; soluble scFv 2H1 titrated; competitor phage scFv 3E2
human GST-VEGF [3] = target: T1, human GST-VEGF; test: competition ELISA on coated GST-VEGF; soluble scFv 2H1 titrated; competitor phage scFv 3D4
human GST-VEGF [4] = target: T1, human GST-VEGF; test: competition ELISA on coated GST-VEGF; soluble scFv 2H1 titrated; competitor phage scFv 3E5
human GST-VEGF [5] = target: T1, human GST-VEGF; test: competition ELISA on coated GST-VEGF; soluble scFv 2H1 titrated; competitor phage scFv 2F5
human GST-VEGF [6] = target: T1, human GST-VEGF; test: competition ELISA on coated GST-VEGF; soluble scFv 2H1 titrated; competitor phage scFv 3B10
human GST-VEGF [7] = target: T1, human GST-VEGF; test: competition ELISA on coated GST-VEGF; soluble scFv 2H1 titrated; competitor phage scFv 3E10
human GST-VEGF [8] = target: T1, human GST-VEGF; test: competition ELISA on coated GST-VEGF; soluble scFv 2H1 titrated; competitor phage scFv 4D8
human GST-VEGF [9] = target: T1, human GST-VEGF; test: competition ELISA on coated GST-VEGF; soluble scFv 2H1 titrated; competitor phage scFv 2H1 original
human GST-VEGF [10] = target: T1, human GST-VEGF; test: competition ELISA on coated GST-VEGF; soluble scFv 2H1 titrated; competitor phage scFv L3H5
human GST-VEGF [11] = target: T1, human GST-VEGF; test: competition ELISA on coated GST-VEGF; soluble scFv 2H1 titrated; competitor phage scFv 3E3
human GST-VEGF [12] = target: T1, human GST-VEGF; test: competition ELISA on coated GST-VEGF; soluble scFv 2H1 titrated; competitor phage scFv 4E11
human GST-VEGF [13] = target: T1, human GST-VEGF; test: competition ELISA on coated GST-VEGF; soluble scFv 2H1 titrated; competitor phage scFv 3E12
human GST-VEGF [14] = target: T1, human GST-VEGF; test: competition ELISA on coated GST-VEGF; soluble scFv 2H1 titrated; competitor phage scFv 3H2
human GST-VEGF [15] = target: T1, human GST-VEGF; test: competition ELISA on coated GST-VEGF; soluble scFv 2H1 titrated; competitor phage scFv 2A10
mouse VEGF (Peprotech) = target: T2, mouse VEGF (Peprotech) (mouse, UniProt Q00731-2 27-190, limits assumed); test: ELISA; antigen coated 1 µg/ml; scFv 10 µg/mL; 9E10-peroxidase
T2 construct: also called Mouse VEGF-A
T2 sequence (looked up): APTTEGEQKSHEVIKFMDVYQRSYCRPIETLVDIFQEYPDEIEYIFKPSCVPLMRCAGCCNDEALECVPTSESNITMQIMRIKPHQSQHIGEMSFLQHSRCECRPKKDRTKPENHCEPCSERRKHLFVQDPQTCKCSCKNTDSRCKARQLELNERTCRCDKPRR

[16] = target: T3, isoform 165 of human VEGF-A (Peprotech) (human, UniProt P15692-4 27-191); test: as above
T3 construct: also called human VEGF165; VEGF 165

[17] = target: T4, isoform 121 of human VEGF-A (Peprotech) (human, UniProt P15692-9 27-147); test: as above
T4 construct: also called human VEGF121; VEGF 121
T4 sequence (looked up): T1 sequence (looked up)

human GST-VEGF [18] = target: T1, human GST-VEGF; test: competition ELISA on coated GST-VEGF; soluble scFv 2H1 titrated; competitor phage scFv L3
human GST-VEGF [19] = target: T1, human GST-VEGF; test: competition ELISA on coated GST-VEGF; soluble scFv 2H1 titrated; competitor phage scFv 3E3; remark: listed apart in the source
human GST-VEGF [20] = target: T1, human GST-VEGF; test: competition ELISA on coated GST-VEGF; soluble scFv 2H1 titrated; competitor phage scFv 2B12
human GST-VEGF [21] = target: T1, human GST-VEGF; test: competition ELISA on coated GST-VEGF; soluble scFv 2H1 titrated; competitor phage scFv L1
human GST-VEGF [22] = target: T1, human GST-VEGF; test: competition ELISA on coated GST-VEGF; soluble scFv 2H1 titrated; competitor phage scFv L3H6
human GST-VEGF [23] = target: T1, human GST-VEGF; test: competition ELISA on coated GST-VEGF; soluble scFv 2H1 titrated; competitor phage scFv 3F3
human GST-VEGF [24] = target: T1, human GST-VEGF; test: competition ELISA on coated GST-VEGF; soluble scFv 2H1 titrated; competitor phage scFv 2D1O

T3 sequence (P15692 other isoform, or with tags, fused parts or gaps limits assumed): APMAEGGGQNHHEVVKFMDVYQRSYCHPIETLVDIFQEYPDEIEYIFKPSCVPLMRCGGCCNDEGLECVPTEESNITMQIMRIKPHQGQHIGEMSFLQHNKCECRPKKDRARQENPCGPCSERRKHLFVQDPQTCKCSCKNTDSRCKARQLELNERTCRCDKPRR

B1: soluble scFv 2H1 antibody fragment (scFv, from another filing)
scFv: QQVQLVQSGAEVKKPGESLKISCKGSGYSFTSYWIGWVRQMPGKGLEWMGIIYPGDSDTRYSPSFQGQVTISADKSISTAYLQWSSLKASDTAMYYCARLVVRDTEIWGQGTMVTVSSAPQAKSSGSGSESKVDQAVVTQEPSLTVSPGGTVTLTCASSIGAVTSGNYPNWFQQRPGQPPRALIYSTSNKHSWTPARFSGSLLGGKAALTLSGAQPEDEAEYYCLLSYSGARPVFGGGTKLTVLGAAAGSEQKLISEEDLNSHHHHHH
Binder B1 has an IC50 (human GST-VEGF [1]) of 10.2 µg/mL, an IC50 (human GST-VEGF [2]) of 15.3 µg/mL and an IC50 (human GST-VEGF [3]) of 16.3 µg/mL. For the same binder, the IC50 (human GST-VEGF [4]) was 9.06 µg/mL, the IC50 (human GST-VEGF [5]) was 4.21 µg/mL and the IC50 (human GST-VEGF [6]) was 7.94 µg/mL. For the same binder, the IC50 (human GST-VEGF [7]) was 15.1 µg/mL, the IC50 (human GST-VEGF [8]) was 33 µg/mL and the IC50 (human GST-VEGF [9]) was 4.89 µg/mL. The IC50 (human GST-VEGF [10]) was 940 µg/mL, the IC50 (human GST-VEGF [11]) was 35.1 µg/mL and the IC50 (human GST-VEGF [12]) was 5.28 µg/mL. The IC50 (human GST-VEGF [13]) was 18.3 µg/mL, the IC50 (human GST-VEGF [14]) was 19.6 µg/mL and the IC50 (human GST-VEGF [15]) was 35.8 µg/mL. It also gave an absorbance at 492 nm (mouse VEGF (Peprotech)) of 0.09, an absorbance at 492 nm [16] of 0.665 and an absorbance at 492 nm [17] of 0.691. The IC50 (human GST-VEGF [18]) was 350 µg/mL, the IC50 (human GST-VEGF [19]) was 34.6 µg/mL and the IC50 (human GST-VEGF [20]) was 21.1 µg/mL. For the same binder, the IC50 (human GST-VEGF [21]) was 11.7 µg/mL, the IC50 (human GST-VEGF [22]) was 978 µg/mL and the IC50 (human GST-VEGF [23]) was 48.9 µg/mL. It also gave an IC50 (human GST-VEGF [24]) of 65.7 µg/mL.
